Reference: patent US20100260668A1 (published 2010)
Blank lines part the entries; values can stand above or below the binder they belong to.

Tests used:
HGF-His tag = biological target: T1, HGF-His tag (UniProt P14210 32-728); assay: direct bind ELISA (N-term VD);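 further: ELISA screen of antibodies for binding to plate-immobilized target antigen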
T1 construct: Bought antigen coated on the ELISA plate; not shown: His tag

VEGF 1-165 aa = biological target: T2, VEGF 1-165 aa (UniProt P15692 27-191); assay: direct bind ELISA (C-term VD)
T2 construct: Bought antigen coated on the ELISA plate
Description: (§1) Enzyme Linked Immunosorbent Assays to screen for antibodies that bind a desired target antigen were performed as follows. […] Plates were washed four times with PBS containing 0.02% Tween 20. Plates were blocked by the addition of 300 μL/well blocking solution (non-fat dry milk powder, various retail suppliers, diluted to 2% in PBS) for ½ hour at room temperature. Plates were washed four times after blocking with PBS containing 0.02% Tween 20.
Alternatively, one hundred microliters per well of 10 μg/ml of Histidine (His) tagged desired target antigen (R&D Systems, Minneapolis, Minn.) was added to ELISA plates coated with monoclonal mouse anti-polyHistidine antibody as described above and incubated for 1 hour at room temperature. Wells were washed four times with PBS containing 0.02% Tween 20.
(§2) Plates were washed 4 times with PBS containing 0.02% Tween 20.

PlGF [1] = biological target: T3, PlGF (UniProt P49763-2 21-149, limits assumed); assay: direct bind ELISA, N-terminal VD
T3 construct: bought antigen coated on the ELISA plate; also called Placental GF
T3 sequence (looked up): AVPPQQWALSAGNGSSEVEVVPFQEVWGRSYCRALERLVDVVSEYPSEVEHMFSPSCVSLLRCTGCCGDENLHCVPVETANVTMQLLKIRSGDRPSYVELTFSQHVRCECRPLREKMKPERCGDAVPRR

PlGF [2] = biological target: T3, PlGF; assay: direct bind ELISA, C-terminal VD
Description: as §1, §2

T2 sequence (P15692 other isoform, or with tags, fused parts or gaps limits assumed): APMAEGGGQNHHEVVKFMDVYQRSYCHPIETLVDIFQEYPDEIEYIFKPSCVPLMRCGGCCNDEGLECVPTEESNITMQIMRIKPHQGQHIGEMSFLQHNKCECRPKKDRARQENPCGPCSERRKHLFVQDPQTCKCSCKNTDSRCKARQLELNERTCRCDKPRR
T1 sequence (P14210 32-728 limits assumed): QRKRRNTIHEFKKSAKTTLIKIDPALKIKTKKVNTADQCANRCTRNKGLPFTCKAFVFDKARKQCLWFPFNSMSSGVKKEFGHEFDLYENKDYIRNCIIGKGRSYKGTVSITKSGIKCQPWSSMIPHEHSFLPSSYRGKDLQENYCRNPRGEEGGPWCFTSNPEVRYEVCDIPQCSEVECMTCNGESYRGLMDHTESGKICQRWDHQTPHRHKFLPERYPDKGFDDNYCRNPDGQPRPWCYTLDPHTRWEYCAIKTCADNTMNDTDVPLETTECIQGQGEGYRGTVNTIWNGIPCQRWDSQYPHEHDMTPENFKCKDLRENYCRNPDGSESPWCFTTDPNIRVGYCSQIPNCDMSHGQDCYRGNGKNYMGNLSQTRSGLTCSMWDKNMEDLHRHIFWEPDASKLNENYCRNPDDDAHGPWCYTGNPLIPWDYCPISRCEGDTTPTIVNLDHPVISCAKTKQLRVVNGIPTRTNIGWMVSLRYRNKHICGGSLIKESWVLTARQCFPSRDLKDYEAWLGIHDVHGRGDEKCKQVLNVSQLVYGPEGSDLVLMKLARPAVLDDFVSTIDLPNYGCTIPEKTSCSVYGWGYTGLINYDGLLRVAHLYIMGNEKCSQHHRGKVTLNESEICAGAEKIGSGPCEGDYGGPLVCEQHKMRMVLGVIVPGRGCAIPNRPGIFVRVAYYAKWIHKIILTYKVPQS

B1: DVD709 (bispecific antibody, human IgG1, kappa)
heavy: not shown
light: DIQMTQSPSSVSASVGDRVTITCRASQGISSWLAWYQQKPGKAPNLLIYEASSLQSGVPSRFGGSGSGTDFTLTISSLQPEDFATYYCQQANGFPWTFGQGTKVEIKRTVAAPDIQMTQSPSSLSASVGDRVTITCRASQDVSTAVAWYQQKPGKAPKLLIYSASFLYSGVPSRFSGSGSGTDFTLTISSLQPEDFATYYCQQSYTTPPTFGQGTKVEIKRTVAAPSVFIFPPSDEQLKSGTASVVCLLNNFYPREAKVQWKVDNALQSGNSQESVTEQDSKDSTYSLSSTLTLSKADYEKHKVYACEVTHQGLSSPVTKSFNRGEC
notes: DVD-Ig; HC linker short, LC linker short; vectors V1/V2
EC50 (HGF-His tag): 0.14 nM
EC50 (VEGF 1-165 aa): 1370 nM

B4: DVD711 (bispecific antibody, human IgG1, kappa)
heavy: not shown
light: DIQMTQSPSSVSASVGDRVTITCRASQGISSWLAWYQQKPGKAPNLLIYEASSLQSGVPSRFGGSGSGTDFTLTISSLQPEDFATYYCQQANGFPWTFGQGTKVEIKRTVAAPDIQMTQSPSSLSASVGDRVTITCRASQVIRRSLAWYQQKPGKAPKLLIYAASNLASGVPSRFSGSGSGTDFTLTISSLQPEDFATYYCQQSNTSPLTFGQGTKVEIKRTVAAPSVFIFPPSDEQLKSGTASVVCLLNNFYPREAKVQWKVDNALQSGNSQESVTEQDSKDSTYSLSSTLTLSKADYEKHKVYACEVTHQGLSSPVTKSFNRGEC
notes: DVD-Ig; N-term VD AB012 (HGF), C-term VD AB071 (VEGF); HC linker short, LC linker short; vectors V1/V2
EC50 (HGF-His tag): 1.32 nM
EC50 (VEGF 1-165 aa): 166 nM

B6: DVD545 (bispecific antibody, human IgG1, kappa)
heavy: not shown
light: AIQMTQSSSSFSVSLGDRVTITCKASEDIYNRFAWYQQKPGNAPRLLISGAASLEAGVPSRFSGSGSGQDYTLSITSLQTEDVATYYCQQYWSTPWTFGGGTKLEIKRTVAAPDIQMTQSPSSLSASVGDRVTITCRASQVIRRSLAWYQQKPGKAPKLLIYAASNLASGVPSRFSGSGSGTDFTLTISSLQPEDFATYYCQQSNTSPLTFGQGTKVEIKRTVAAPSVFIFPPSDEQLKSGTASVVCLLNNFYPREAKVQWKVDNALQSGNSQESVTEQDSKDSTYSLSSTLTLSKADYEKHKVYACEVTHQGLSSPVTKSFNRGEC
notes: outer AB074 (PlGF), inner AB071 (VEGF); HC linker short, LC linker short; also called DVD-Ig DVD545
EC50 (PlGF [1]): 98.8 nM

The next lines start with the values.

EC50 (PlGF [1]): 66300 nM
B2: DVD553 (bispecific antibody, human IgG1, kappa)
heavy: not shown
light: AIQMTQSSSSFSVSLGDRVTITCKASEDIYNRFAWYQQKPGNAPRLLISGAASLEAGVPSRFSGSGSGQDYTLSITSLQTEDVATYYCQQYWSTPWTFGGGTKLEIKRTVAAPSVFIFPPDIQMTQSPSSLSASVGDRVTITCRASQVIRRSLAWYQQKPGKAPKLLIYAASNLASGVPSRFSGSGSGTDFTLTISSLQPEDFATYYCQQSNTSPLTFGQGTKVEIKRTVAAPSVFIFPPSDEQLKSGTASVVCLLNNFYPREAKVQWKVDNALQSGNSQESVTEQDSKDSTYSLSSTLTLSKADYEKHKVYACEVTHQGLSSPVTKSFNRGEC
notes: outer AB074 (PlGF), inner AB071 (VEGF); HC linker long, LC linker long; also called DVD-Ig DVD553

EC50 (PlGF [1]): 340 nM
B3: DVD567 (bispecific antibody, human IgG1, kappa)
heavy: not shown
light: AIQMTQSSSSFSVSLGDRVTITCKASEDIYNRFAWYQQKPGNAPRLLISGAASLEAGVPSRFSGSGSGQDYTLSITSLQTEDVATYYCQQYWSTPWTFGGGTKLEIKRTVAAPSVFIFPPDIQMTQSPSSLSASVGDRVTITCRASQDVSTAVAWYQQKPGKAPKLLIYSASFLYSGVPSRFSGSGSGTDFTLTISSLQPEDFATYYCQQSYTTPPTFGQGTKVEIKRTVAAPSVFIFPPSDEQLKSGTASVVCLLNNFYPREAKVQWKVDNALQSGNSQESVTEQDSKDSTYSLSSTLTLSKADYEKHKVYACEVTHQGLSSPVTKSFNRGEC
notes: HC linker short, LC linker long; also called DVD-Ig DVD567

EC50 (PlGF [2]): 146 nM
B5: DVD550 (bispecific antibody, human IgG1, kappa)
heavy: not shown
light: DIQMTQSPSSLSASVGDRVTITCSASQDISNYLNWYQQKPGKAPKVLIYFTSSLHSGVPSRFSGSGSGTDFTLTISSLQPEDFATYYCQQYSTVPWTFGQGTKVEIKRTVAAPSVFIFPPAIQMTQSSSSFSVSLGDRVTITCKASEDIYNRFAWYQQKPGNAPRLLISGAASLEAGVPSRFSGSGSGQDYTLSITSLQTEDVATYYCQQYWSTPWTFGGGTKLEIKRTVAAPSVFIFPPSDEQLKSGTASVVCLLNNFYPREAKVQWKVDNALQSGNSQESVTEQDSKDSTYSLSSTLTLSKADYEKHKVYACEVTHQGLSSPVTKSFNRGEC
notes: HC linker long, LC linker long; also called DVD-Ig DVD550
